In publication PMC5374410, “Identification of a Potent Allosteric Inhibitor of Human Protein Kinase CK2 by Bacterial Surface Display Library Screening” (Pharmaceuticals, 2017):

T1: human αS1-casein (170 aa) displayed on E. coli UT5600(DE3) by autodisplay (plasmid pKP10) (human, UniProt P47710 16-185)
T1 construct: human αS1-casein as autodisplay passenger, 510 nt, 170 aa as printed; Passenger between the cleaved signal peptide of the autotransporter precursor and the linker; also called full-length αS1-casein; not shown: AIDA-I autotransporter linker and β-barrel, C-terminal, kept
T1 sequence (looked up): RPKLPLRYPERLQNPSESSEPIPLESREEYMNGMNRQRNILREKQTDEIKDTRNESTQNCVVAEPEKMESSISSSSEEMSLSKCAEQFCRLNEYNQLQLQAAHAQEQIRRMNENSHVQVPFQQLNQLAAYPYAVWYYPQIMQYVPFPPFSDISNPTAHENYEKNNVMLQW

B1: peptide B2 (free synthetic peptide) (peptide)
peptide: DCRGLIVMIKLH
B2: recombinant human protein kinase CK2 holoenzyme coupled to fluorescein isothiocyanate (FITC) (complex)
chain 1: MSGPVPSRARVYTDVNTHRPREYWDYESHVVEWGNQDDYQLVRKLGRGKYSEVFEAINITNNEKVVVKILKPVKKKKIKREIKILENLRGGPNIITLADIVKDPVSRTPALVFEHVNNTDFKQLYQTLTDYDIRFYMYEILKALDYCHSMGIMHRDVKPHNVMIDHEHRKLRLIDWGLAEFYHPGQEYNVRVASRYFKGPELLVDYQMYDYSLDMWSLGCMLASMIFRKEPFFHGHDNYDQLVRIAKVLGTEDLYDYIDKYNIELDPRFNDILGRHSRKRWERFVHSENQHLVSPEALDFLDKLLRYDHQSRLTAREAMEHPYFYTVVKDQARMGSSSMPGGSTPVSSANMMSGISSVPTPSPLGPLAGSPVIAAANPLGMPVPAAAGAQQ
chain 2: not shown
modifications: FITC covalently coupled to the holoenzyme, sites not stated | FITC covalently coupled to the holoenzyme, sites not stated
notes: catalytic subunit CK2α of human protein kinase CK2; regulatory subunit CK2β of human protein kinase CK2; FITC-labelled in the flow cytometry; also called CK2-FITC; fluorophore coupled CK2; source: E. coli BL21(DE3), purified (protocol of Grankowski et al. with modifications), FITC labeling Kit (Calbiochem); copies: 2 + 2

Key:
[1] = target: B2; experiment: cell-based or functional assay
[2] = target: human CK2α, catalytic subunit alone (unlabelled) (human, UniProt P68400 1-391); experiment: cell-based or functional assay
[3] = target: B2; experiment: cell-based or functional assay; remark: listed apart in the source
[4] = target: T1, human αS1-casein (170 aa) displayed on …; experiment: flow cytometry on cells; E. coli UT5600(DE3) cells displaying the passenger by autodisplay incubated with fluorescein-coupled CK2 holoenzyme for 30 min at 37 °C in 50 mM Tris/HCl pH 7.4, 100 mM NaCl, 10 mM MgCl2, 1 mM DTT, 200 µM ATP; washed; excitation 488 nm, 527/30 nm filter; host strain without plasmid as control; conditions: one partner purified

| Ki, taken as equal to the IC50 of the CE kinase assay (non-competitive inhibition with α = 1) [1] [µM] | IC50 of inhibition of the kinase activity of the catalytic subunit CK2α alone, CE assay [2] [µM] | IC50 of inhibition of the kinase activity of (unlabelled) CK2 holoenzyme, CE assay with substrate peptide … [3] [µM] | fold fluorescence intensity over control cells [4] [fold] | Binder |
| --- | --- | --- | --- | --- |
| 0.8 | 0.8 | 0.8 |  | B1 |
|  |  |  | 10 | B2 |
